Experimental data from patent publication US20230416365A1 (Hoffmann-La Roche, published 2023).
Changes are numbered by the printed parent chain.

T1: N(A2B2)A-avi-His (biotinylated at the avi tag)
T1 construct: also called biotinylated N(A2B2)A-avi-His
T1 chain: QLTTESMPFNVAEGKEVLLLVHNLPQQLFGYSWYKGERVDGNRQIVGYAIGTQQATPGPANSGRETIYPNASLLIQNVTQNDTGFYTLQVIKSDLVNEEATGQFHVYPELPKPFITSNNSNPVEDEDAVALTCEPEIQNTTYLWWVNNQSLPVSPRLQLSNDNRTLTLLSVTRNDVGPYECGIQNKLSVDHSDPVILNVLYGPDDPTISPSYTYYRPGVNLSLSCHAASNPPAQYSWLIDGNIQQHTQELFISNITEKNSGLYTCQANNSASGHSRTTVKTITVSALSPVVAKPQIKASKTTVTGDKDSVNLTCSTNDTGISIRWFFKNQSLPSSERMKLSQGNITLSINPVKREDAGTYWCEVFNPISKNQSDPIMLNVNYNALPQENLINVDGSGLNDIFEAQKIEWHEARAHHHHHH

T2: Hu N(A2-B2)A-avi-His (human, biotinylated at the avi tag (Example 2.2))
T2 construct: also called hu N(A2-B2)A-avi-His B; CEACAM5-based antigen
T2 chain: T1 chain

B1: A5H1EL1D Fab (phage display format, parental clone) (Fab, V domains shown)
VH: EVQLLESGGGLVQPGGSLRLSCAASGFTFTDYYMNWVRQAPGKGLEWLGFIGNKANAYTTEYSASVKGRFTISRDKSKNTLYLQMNSLRAEDTATYYCTRDRGLRFYFDYWGQGTTVTVSS
VL: EIVLTQSPATLSLSPGERATLSCRASSSVTYIHWYQQKPGQAPRSWIYATSNLASGIPARFSGSGSGTDFTLTISSLEPEDFAVYYCQHWSSKPPTFGQGTKLEIK
notes: Fab from E. coli (bacterial supernatant or IMAC-purified), Flag tag
B2: Fab derived from P1AE2166 (Fab, V domains shown)
VH: B1 VH with A57G
VL: B1 VL with Q41S, A42S, R44K
notes: Fab; also called P1AE4137
B3: Fab derived from P1AE2165 (Fab, V domains shown)
VH: B1 VH with A57G
VL: B1 VL with E1Q, I2T, S45L, W46L
notes: Fab; also called P1AE4136
B4: Fab derived from P1AE2182 (Fab, V domains shown)
VH: B1 VH with L48V, A57G, T95V, T99A
VL: B1 VL
notes: Fab; also called P1AE4143
B5: Fab derived from P1AE2181 (Fab, V domains shown)
VH: B1 VH with L48V, A57G, T95V, T99A
VL: B1 VL with Q41S, A42S, R44K
notes: Fab; also called P1AE4142
B6: Fab derived from P1AE2177 (Fab, V domains shown)
VH: B1 VH with L48V, A57G, K76N, T95V
VL: B1 VL
notes: Fab; also called P1AE4140
B7: Fab derived from P1AE2164 (Fab, V domains shown)
VH: B1 VH with A57G
VL: B1 VL with E1Q, I2T, Q41S, A42S, R44K, F70Y
notes: Fab; also called P1AE4135
B8: Fab derived from P1AE2179 (Fab, V domains shown)
VH: B1 VH with L48V, A57G, T95V, T99A
VL: B1 VL with E1Q, I2T, Q41S, A42S, R44K, F70Y
notes: Fab; also called P1AE4141
B9: Fab derived from P1AE2167 (Fab, V domains shown)
VH: B1 VH with A57G
VL: B1 VL
notes: Fab; also called P1AE4138
B10: Fab derived from P1AE2176 (Fab, V domains shown)
VH: B1 VH with L48V, A57G, K76N, T95V
VL: B1 VL with Q41S, A42S, R44K
notes: Fab; also called P1AE4139
B11: CEA (A5B7) Fab (parental murine antibody) (Fab, V domains shown)
VH: EVKLVESGGGLVQPGGSLRLSCATSGFTFTDYYMNWVRQPPGKALEWLGFIGNKANGYTTEYSASVKGRFTISRDKSQSILYLQMNTLRAEDSATYYCTRDRGLRFYFDYWGQGTTLTVSS
VL: QTVLSQSPAILSASPGEKVTMTCRASSSVTYIHWYQQKPGSSPKSWIYATSNLASGVPARFSGSGSGTSYSLTISRVEAEDAATYYCQHWSSKPPTFGGGTKLEIK
notes: Fab; also called P1AE0289
B12: bispecific CEA (P005.103-combo1)-CD28 (SA Variant 15) 1+1 IgG (bispecific antibody)
heavy 1: EIVLTQSPATLSLSPGERATLSCRASSSVTYIHWYQQKPGQAPRSWIYATSNLASGIPARFSGSGSGTDFTLTISSLEPEDFAVYYCQHWSSISPTFGQGTKLEIKSSASTKGPSVFPLAPSSKSTSGGTAALGCLVKDYFPEPVTVSWNSGALTSGVHTFPAVLQSSGLYSLSSVVTVPSSSLGTQTYICNVNHKPSNTKVDKKVEPKSCDKTHTCPPCPAPEAAGGPSVFLFPPKPKDTLMISRTPEVTCVVVDVSHEDPEVKFNWYVDGVEVHNAKTKPREEQYNSTYRVVSVLTVLHQDWLNGKEYKCKVSNKALGAPIEKTISKAKGQPREPQVCTLPPSRDELTKNQVSLSCAVKGFYPSDIAVEWESNGQPENNYKTTPPVLDSDGSFFLVSKLTVDKSRWQQGNVFSCSVMHEALHNHYTQKSLSLSP
light 1: EVQLLESGGGLVQPGGSLRLSCAASGFTFTDYYMNWVRQAPGKGLEWLGFIGNKANAYTTEYSASVKGRFTISRDKSKNTLYLQMNSLRAEDTATYYCTRDRGIRFSFDYWGQGTTVTVSSASVAAPSVFIFPPSDEQLKSGTASVVCLLNNFYPREAKVQWKVDNALQSGNSQESVTEQDSKDSTYSLSSTLTLSKADYEKHKVYACEVTHQGLSSPVTKSFNRGEC
heavy 2: not shown
light 2: not shown
notes: knob-into-hole, crossmab, PG-LALA
B13: bispecific CEA (P005.103-combo2)-CD28 (SA Variant 15) 1+1 IgG (bispecific antibody)
heavy 1: B12 heavy 1
light 1: B12 light 1 with T28Y, F50V, G52S
heavy 2: not shown
light 2: not shown
notes: as for B12
B14: bispecific CEA (P006.038)-CD28 (SA Variant 15) 1+1 IgG (bispecific antibody)
heavy 1: B12 heavy 1 with I93V, S94P
light 1: B12 light 1 with S107G
heavy 2: not shown
light 2: not shown
notes: as for B12
B15: bispecific CEA (P006.038-combo2)-CD28 (SA Variant 15) 1+1 IgG (bispecific antibody)
heavy 1: B12 heavy 1 with I93V, S94P
light 1: B12 light 1 with T30S, Y33E, G52S, S107G
heavy 2: not shown
light 2: not shown
notes: as for B12
B16: bispecific CEA (P006.038-combo1)-CD28 (SA Variant 15) 1+1 IgG (bispecific antibody)
heavy 1: B12 heavy 1 with I93V, S94P
light 1: B12 light 1 with T28Y, Y33A, F50V, G52S, S107G
heavy 2: not shown
light 2: not shown
notes: as for B12
B17: CEA (A5H1EL1D)-CD28 (SA_Variant 29) 1+1 format (Molecule 11D) (bispecific antibody, human IgG1, kappa, L234A L235A)
heavy 1: B12 heavy 1 with I93K, S94P
light 1: B12 light 1 with I104L, S107Y
heavy 2: not shown
light 2: not shown
notes: huIgG1 PG-LALA CrossFab; also called P1AE4776
B18: CEA (A5H1EL1D)-CD28 (SA_Variant 8) 1+1 format (Molecule 11B) (bispecific antibody, human IgG1, kappa, L234A L235A)
heavy 1: B12 heavy 1 with I93K, S94P
light 1: B12 light 1 with I104L, S107Y
heavy 2: not shown
light 2: not shown
notes: huIgG1 PG-LALA CrossFab; also called P1AE4774
B19: CD28(SA)_variant_12 (antibody, human IgG1, kappa, L234A L235A)
heavy: not shown
light: DIQMTQSPSSLSASVGDRVTITCRASQNIYVWLNWYQQKPGKAPKLLIYKASNLYSGVPSRFSGSRSGTDFTLTISSLQPEDFATYYCQQGQTYPYTFGQGTKLEIKRTVAAPSVFIFPPSDRKLKSGTASVVCLLNNFYPREAKVQWKVDNALQSGNSQESVTEQDSKDSTYSLSSTLTLSKADYEKHKVYACEVTHQGLSSPVTKSFNRGEC
chain: DKTHTCPPCPAPEAAGGPSVFLFPPKPKDTLMISRTPEVTCVVVDVSHEDPEVKFNWYVDGVEVHNAKTKPREEQYNSTYRVVSVLTVLHQDWLNGKEYKCKVSNKALGAPIEKTISKAKGQPREPQVCTLPPSRDELTKNQVSLSCAVKGFYPSDIAVEWESNGQPENNYKTTPPVLDSDGSFFLVSKLTVDKSRWQQGNVFSCSVMHEALHNRFTQKSLSLSP
notes: monovalent one-armed huIgG1 PG-LALA; from supernatant; also called P1AE3068
B20: CD28(SA)_variant_19 (antibody, human IgG1, kappa, L234A L235A)
heavy: not shown
light: not shown
chain: B19 chain
notes: monovalent one-armed huIgG1 PG-LALA; from supernatant; also called P1AE3075
B21: CD28(SA)_variant_15 (antibody, human IgG1, kappa, L234A L235A)
heavy: not shown
light: not shown
chain: B19 chain
notes: monovalent one-armed huIgG1 PG-LALA; from supernatant; also called P1AE3071
B22: CD28(SA)_variant_16 (antibody, human IgG1, kappa, L234A L235A)
heavy: not shown
light: not shown
chain: B19 chain
notes: monovalent one-armed huIgG1 PG-LALA; from supernatant; also called P1AE3072
B23: CD28(SA)_variant_17 (antibody, human IgG1, kappa, L234A L235A)
heavy: not shown
light: not shown
chain: B19 chain
notes: monovalent one-armed huIgG1 PG-LALA; from supernatant; also called P1AE3073
B24: CD28(SA)_variant_13 (antibody, human IgG1, kappa, L234A L235A)
heavy: not shown
light: not shown
chain: B19 chain
notes: monovalent one-armed huIgG1 PG-LALA; from supernatant; also called P1AE3069

Target: T1, N(A2B2)A-avi-His
Test: SPR, ProteOn, antigen on NLC chip, purified Fab as analyte

Work on B1 yielded a Kd of 2.3 nM.

B1 showed a koff of 0.000248 s⁻¹.

With B1 the kon was 108000 M⁻¹ s⁻¹.

Target: T2, Hu N(A2-B2)A-avi-His
Test: SPR, Biacore T200, antigen amine-coupled on CM5, Fab as analyte

First: B2
Second: B3
The Kd of the first is 9-fold higher: 11.3 nM for the first, 1.25 nM for the second.

B4 and B5 are within 1.5-fold of each other in Kd: 2.92 nM for the first, 2.64 nM for the second.

Going from B6 to B7, the Kd falls from 7.62 nM to 1.7 nM (4.5-fold).

B8 and B9 are within 1.5-fold of each other in Kd: 1.83 nM for the first, 1.47 nM for the second.

Compared with B10, B11 is 14-fold lower in Kd: 7.58 nM for the first, 0.559 nM for the second.

Target: T1, N(A2B2)A-avi-His
Test: SPR, ProteOn, antigen on NLC chip, bispecific IgG as analyte

Compared with B12, B13 is 3-fold lower in Kd: 0.27 nM for the first, 0.09 nM for the second.

Going from B14 to B15, the Kd rises from 0.22 nM to 3.66 nM (17-fold). The first binds more tightly here.

In the case of B16, the Kd is reported as 4.48 nM.

First: B12
Second: B13
The koff of the first is 3.3-fold higher: 3.42e-05 s⁻¹ for the first, 1.05e-05 s⁻¹ for the second.

First: B14
Second: B15
The koff of the first is 12-fold lower: 5.87e-05 s⁻¹ for the first, 0.000698 s⁻¹ for the second.

For B16, the koff was 0.000799 s⁻¹.

B12 and B13 are within 1.5-fold of each other in kon: 126000 M⁻¹ s⁻¹ for the first, 123000 M⁻¹ s⁻¹ for the second.

B14 and B15 are within 1.5-fold of each other in kon: 267000 M⁻¹ s⁻¹ for the first, 191000 M⁻¹ s⁻¹ for the second.

B16 was tested, and the kon was 178000 M⁻¹ s⁻¹.

Target: T1, N(A2B2)A-avi-His
Test: SPR off-rate, ProteOn, antigen on NLC chip, Fab in bacterial supernatant

B1 gave a koff of 0.00031 s⁻¹.

Each binder was assayed against T3, biotinylated huCD28-Fc (dimeric CD28-Fc construct with a monovalent biotinylated avi-tag) (human, UniProt P10747 19-152, biotinylated at the C-terminal avi tag) (assay: SPR, ProteOn XPR36, huCD28-Fc immobilised, bispecific as analyte).
T3 construct: not shown: hum IgG1 Fc fragment with hole and PG-LALA mutations; hum IgG1 Fc fragment with knob and PG-LALA mutations

Going from B17 to B18, the Kd rises from 1.2 nM to 58 nM (48-fold).

Compared with B17, B18 is 30-fold higher in koff: 0.000324 s⁻¹ for the first, 0.0098 s⁻¹ for the second.

Going from B17 to B18, the kon falls from 271000 M⁻¹ s⁻¹ to 169000 M⁻¹ s⁻¹ (1.6-fold).

Each binder was assayed against T4, human CD28 on CHO cells (parental cell line CHO-k1 ATCC #CCL-61, modified to stably overexpress human CD28) (human, UniProt P10747 19-220) (assay: flow cytometry on CHO cells stably expressing human CD28, monovalent one-armed IgG from supernatant, MFI (PE)).
T4 construct: also called hu CD28; CHO-hCD28

B19: binds.
B20: binds.
B21: binds.
B22: binds.
B23: binds.
B24: binds.
